14 molecules from EP4585618A1 (Jiangsu Hengrui Pharmaceuticals Co., Ltd., dated 2025) can be followed below.

The labels stand for the following.
B1: chimeric antibody ChP2-C2 (antibody, human IgG4 S228P, kappa, F234A L235A, V domains shown)
VH: QVQLKQSGPGLVQPSQSLSITCTVSGFSLTSYGVHWVRQSPGKGLEWLGVIWSGGHTDLNAAFISRLSINKDNSKSQVFFKMNSLQGDDTAIYYCARNGYGGCLDYWGQGTTLTVSS
VL: DIVMTQSHKFMSTSVGDRVSITCKAGQDVSIAVAWYQQKPGQSPQLLIYSASYRYTGVPDRFTGSGSGTDFTFAISSVQAEDLAVYYCQQYYSIPPSFGAGTKLEIKR
notes: Murine variable regions with hIgG4(LALA) and CL constant regions; also called M P2-C2
B2: chimeric antibody ChP2-E10 (antibody, human IgG4 S228P, kappa, F234A L235A, V domains shown)
VH: DVQLQESGPGLVKPSQSLSLTCSVTGYSITSGYYWNWIRQFPGNKLEWMGYMSYEGTNNSNPSLKNRISITRDTSKNQFFLKLNSVTTEDTARYYCARERAYYYGTLGAMDYWGQGTSVTVSS
VL: DIQMTQSPASLSVSVGETVTITCRASENIYSNLAWYQQKQGKSPQLLVYAATNLADGVPSRFSGSGSGTQYSLKINSMQSEDFGSYYCQHFWDTPFTFGSGTKLEIKR
notes: Murine variable regions with hIgG4(LALA) and CL constant regions; also called M P2-E10
B3: chimeric antibody ChP2-B9 (antibody, human IgG4 S228P, kappa, F234A L235A, V domains shown)
VH: EVQLQQSGPELVKPGASVKISCKASGYTFTDYFMNWVKLSHGKSLEWIGDINPNNGGTSYNQRFKDKVTLTVDKSSSTAYMELRSLTSDSSAVYFCARNGYYDSNYLSYFDVWGTGTTVTVSS
VL: DIQMTQSPASLSVSVGETVTITCRASENIYSNLAWYQQKQGKSPQLLVYGATNLADGVPSRFSGSGSGTQYSLKINSLQSEDFGSYYCQHFWDTPYTFGGGTKLEIKR
notes: Murine variable regions with hIgG4(LALA) and CL constant regions; also called M P2-B9
B4: chimeric antibody ChP2-E7 (antibody, human IgG4 S228P, kappa, F234A L235A, V domains shown)
VH: QVQLQQPGTELVKPGASVKLSCKASGYTFTSYWMHWVKQSPGQGLEWIGNINPSNGGPNYNENFKTKATLTVDKSSSTAYMQLNSLTSEDSAVYYCAGGDYYGGSYLFAYWGQGTLVTVSS
VL: DTVMTQSHKFMSTSVGDRVSVTCKASQDVNIAVAWYQQKPGQSPKLLIYSSSYRYTGVPDRFTGSGSETDFTFTISSVQAEDLAVYYCQQHYTFPYTFGGGTKLEIKR
notes: Murine variable regions with hIgG4(LALA) and CL constant regions; also called M P2-E7
B5: chimeric antibody ChP2-E11 (antibody, human IgG4 S228P, kappa, F234A L235A, V domains shown)
VH: QVQLQQSGPELVKPGASVKISCKASAYTFTDYYINWVKQRPGQGLEWIGWIFPGSGSTYYNEKFKGKATLTVDKSSSTAYMLVSSLTSEDSAVYFCARSGTLVAPYAMDYWGQGTSVTVSS
VL: SIVMTQTPKFLLVSAGDRVTITCKASQSVSNDVAWYQQKPGQSPKLLIYYTSNRYTGVPDRFTGSGYGTDFTFTISTVQAEDLAVYFCQQDYSFPLTFGAGTKLEIKR
notes: Murine variable regions with hIgG4(LALA) and CL constant regions; also called M P2-E11
B6: chimeric antibody ChP2-G4 (antibody, human IgG4 S228P, kappa, F234A L235A, V domains shown)
VH: EVQLQQSGPELVKPGASVKMSCKASGYTFTDYNMHWVKQSHGKSLEWIGYINPNNGGTTYNQKFKGKATLTVNKSSSTAYMELRSLTSEDSAVYYCASSEYYGSTFLFAYWGQGTLVTVSS
VL: DIVMTQSHKFMSTSVGDRVGITCKASQDVSIAVAWYQQKPGQSPKLLIYSASYRYTGVPDRFTGSGSGTDFTFTISSVQAEDLAAYYCQQHYSTPWTFGGGTKLEIKR
notes: Murine variable regions with hIgG4(LALA) and CL constant regions; also called M P2-G4
B7: chimeric antibody ChP2-C6 (antibody, human IgG4 S228P, kappa, F234A L235A, V domains shown)
VH: EVQLQQSGPELVKPGASVKMSCEASGYTFTDYYIHWVKQSHGESLEWIGYIYPDNGYNGYNQKFKGKATLTVDKSSNTAYMELRSLTSEDSAVYFCTRRGDYSGVHFDYWGQGTALTVSS
VL: DIVLTQSPASLAVSLGQRATISCRASESVNNYGVGFLHWYQQKPGQPPKLLIYRASTLESGIPARFSGSGSRTDFTLTINPVETDDVATYYCQHSYKDPPWTFGGGTKLEIKR
notes: Murine variable regions with hIgG4(LALA) and CL constant regions; also called M P2-C6
B8: chimeric antibody ChP2-C10 (antibody, human IgG4 S228P, kappa, F234A L235A, V domains shown)
VH: QVQLQQPGAELVKPGASVKLSCKASGYTFTSYWMHWVKQRPGQGLEWIGVIHPNSDTTNYNEKFKNKATLTVDKSSSTAYMQLSSLTSEDSAVYYCATRYDYAYYAMDYWGQGTSVTVSS
VL: DIVMTQSHKFMSTSVGDRVSITCKASQDVTTAVAWYQQKPGQSPKLLIYSASYRYTGVPDRFTGSGSGTDFTFTISSVQAEDLAVYHCQQHYSTSPTFGGGTMLEIKR
notes: Murine variable regions with hIgG4(LALA) and CL constant regions; also called M P2-C10
B9: chimeric antibody ChP1-B9 (antibody, human IgG4 S228P, kappa, F234A L235A, V domains shown)
VH: QVQLKQSGPGLVQPSQSLSITCTVSGFSLTSYGVHWVRQSPGKGLEWLGVIWSGGNTDYNAAFMSRLRINKDNSKSQVFFKMNSLQGSDTAIYYCATPYDVVPFAYWGQGTLVTVSS
VL: DIVMTQSHKFMSTSVGDRVSITCKASQDVNIAVAWYQQKPGLSPKLLIYSASYRYTGVPGRFTGSGSGTDFTFTISSVKAEDLAVYYCQQHYSIPFTFGAGTKLEIKR
notes: Murine variable regions with hIgG4(LALA) and CL constant regions; also called M P1-B9
B10: chimeric antibody ChP2-E8 (antibody, human IgG4 S228P, kappa, F234A L235A, V domains shown)
VH: EVQLLESGGGLVKPGGSLKLSCAASGFTFSDYGIHWVRQAPEKGLEWVAYISSGSSIINYADTVKGRFTISRDNAKNTLLLQMTSLRSEDTAMYYCARGPNYYGSSYLLVYWGQGTLVTVSS
VL: DIVMTQSHKFMSTSVGDRVSITCKASQDVNIAVAWYQQRPGQSPKLLIYSASYRYTGVPDRFTGSGSGTDFTFTISSVQAEDLAVYYCQQHYNIPWTFGGGTKLEIKR
notes: Murine variable regions with hIgG4(LALA) and CL constant regions; also called M P2-E8
B11: chimeric antibody ChP2-B3 (antibody, human IgG4 S228P, kappa, F234A L235A, V domains shown)
VH: QVQLKQSGPGLVQPSQSLSITCTVSGFSLTNYGVHWFRQSPGKGLEWLGMIWSGGNTDYNAAFTSRLIITKDNSKSQVFFKMNSMQADDTAIYYCARGDYGSSSAYWGQGTLVTVSS
VL: DIVMTQSHKFMSTSVGDRVSITCKASQDVSIAVAWYQQKPGQSPKLLIYSASYRYTGVPDRFTGSGSGTDFTFTISSVQAEDLAVYYCQQHYSNTLTFGAGTKLEIKR
notes: Murine variable regions with hIgG4(LALA) and CL constant regions; also called M P2-B3
B12: chimeric antibody ChP2-C7 (antibody, human IgG4 S228P, kappa, F234A L235A, V domains shown)
VH: EVQLQQSGPELVKPGTSVKMSCKASGYTFTDYSMHWVRQSHGKSLEWIGYFNPNNGDTIYNQKFKGKATLTVNKSSSTAYMELRSLTSDDSAVYYCAREDSVSTNAWDGALDYWGQGTSVTVSS
VL: DIQMTQSPASLSVSVGETVTITCRTSENIYSNLAWYQQKQGKSPQLLVYGATNLADGVPSRFSGSGSGTQYSLKINSLQSEDFGSYYCQHFWDIPWTFGGGTTLEIKR
notes: Murine variable regions with hIgG4(LALA) and CL constant regions; also called M P2-C7
B13: chimeric antibody ChP1-D10 (antibody, human IgG4 S228P, kappa, F234A L235A, V domains shown)
VH: QVQLKQSGPGLVQPSQSLSITCTVSGFSLTTYGVHWVRQSPGKGLEWLGVIWSGGNTDSNAAFISRLSISKDNSKSQVFFKMNNLQADDTAIYYCARYSYAMDYWGQGTSVTVSS
VL: DIVMTQSHKFMSTSVGDRVSITCKASQDVSNGVAWYQQKPGQSPKVLIYAASYRYTGVPDRFTGSGSGTDFTFTIGSVQAEDLALYYCQQHYSTPFTFGSGTMLEIKR
notes: Murine variable regions with hIgG4(LALA) and CL constant regions; also called M P1-D10
B14: chimeric antibody ChP2-F4 (antibody, human IgG4 S228P, kappa, F234A L235A, V domains shown)
VH: EVQLVESGGGLVKPGGSLKLSCAASGFTFSDYGMHWVRQAPEKGLEWVAYISSGSRIIYYADTVKGRFTISRDNAKNTLFLQMTSLRSEDTAMYSCARFYNYAHYTMDYWGQGTSVTVSS
VL: DIVMTQSHKFMSTSVGDRVSITCKASQDVSTAVAWYQQKPGQSPKLLIYSASYRYTGVPDRFTGSGSGTDFTFTISSVQAEDLTLYYCQHHYSTPPTFGGGTKLEIKR
notes: Murine variable regions with hIgG4(LALA) and CL constant regions; also called M P2-F4

T1 sequence (Q8N423 other isoform, or with tags, fused parts or gaps limits assumed): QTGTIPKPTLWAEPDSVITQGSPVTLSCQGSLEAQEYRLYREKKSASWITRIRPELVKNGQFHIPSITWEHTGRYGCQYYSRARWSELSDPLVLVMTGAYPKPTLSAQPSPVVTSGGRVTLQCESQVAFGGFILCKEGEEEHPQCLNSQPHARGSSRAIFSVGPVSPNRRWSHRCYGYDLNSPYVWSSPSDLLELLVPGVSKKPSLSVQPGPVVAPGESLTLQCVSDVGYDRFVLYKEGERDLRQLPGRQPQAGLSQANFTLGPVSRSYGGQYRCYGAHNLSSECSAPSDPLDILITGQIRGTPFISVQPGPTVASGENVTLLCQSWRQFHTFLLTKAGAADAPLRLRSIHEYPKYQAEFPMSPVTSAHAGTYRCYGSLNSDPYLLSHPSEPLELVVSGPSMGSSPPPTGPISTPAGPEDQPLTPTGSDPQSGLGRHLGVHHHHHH

One assay concerns the target T1, His-tagged ILT4 protein extracellular domain: ILT4-His (human, UniProt Q8N423 22-460).
T1 construct: Expressed in 293 cells; also called human ILT4-His protein
Description: ELISA, coated ILT4-His 1 µg/mL; Assay 5.
For B1, a half-maximal response (EC50) required 0.0493 µg/mL and the Top turned out to be 1.16 absorbance at 450 nm.

For the molecule B2, the response was half-maximal at 0.0658 µg/mL (EC50) and the Top was determined as 1.65 absorbance at 450 nm.

Turning to B3, the concentration giving a half-maximal response (EC50) was 0.0487 µg/mL and the Top was 1.53 absorbance at 450 nm.

A further assay concerns the target T1, His-tagged ILT4 protein extracellular …. The assay can be described thus: ELISA, coated ILT4-His 1 µg/mL; Assay 2.
B4 displayed an EC50 of 0.0729 µg/mL and a Top of 2 absorbance at 450 nm.

As for B5, a half-maximal effect (EC50) was put at 0.0428 µg/mL and the Top stood at 1.98 absorbance at 450 nm.

As to B6, the EC50 was determined as 0.0621 µg/mL and the Top turned out to be 1.83 absorbance at 450 nm.

The next assay shares this target. The assay can be described thus: screening of chimeric antibodies (ILT4 protein binding, cell binding, ILT4/HLA-G blocking).
Regarding B7, the binding result is reported as “binds”.

Regarding B8, the binding result is “binds”.

B9: the binding result is recorded as “binds”.

With B10, the binding result is listed as “binds”.

Regarding B11, the binding result is “binds”.

Consider B12, for which the binding result was “binds”.

With B13, the binding result was “binds”.

Regarding B14, the binding result is reported as “binds”.
